PMC3680789

Target: T1, ScPif1 (Saccharomyces cerevisiae, UniProt P07271 40-859)
T1 sequence: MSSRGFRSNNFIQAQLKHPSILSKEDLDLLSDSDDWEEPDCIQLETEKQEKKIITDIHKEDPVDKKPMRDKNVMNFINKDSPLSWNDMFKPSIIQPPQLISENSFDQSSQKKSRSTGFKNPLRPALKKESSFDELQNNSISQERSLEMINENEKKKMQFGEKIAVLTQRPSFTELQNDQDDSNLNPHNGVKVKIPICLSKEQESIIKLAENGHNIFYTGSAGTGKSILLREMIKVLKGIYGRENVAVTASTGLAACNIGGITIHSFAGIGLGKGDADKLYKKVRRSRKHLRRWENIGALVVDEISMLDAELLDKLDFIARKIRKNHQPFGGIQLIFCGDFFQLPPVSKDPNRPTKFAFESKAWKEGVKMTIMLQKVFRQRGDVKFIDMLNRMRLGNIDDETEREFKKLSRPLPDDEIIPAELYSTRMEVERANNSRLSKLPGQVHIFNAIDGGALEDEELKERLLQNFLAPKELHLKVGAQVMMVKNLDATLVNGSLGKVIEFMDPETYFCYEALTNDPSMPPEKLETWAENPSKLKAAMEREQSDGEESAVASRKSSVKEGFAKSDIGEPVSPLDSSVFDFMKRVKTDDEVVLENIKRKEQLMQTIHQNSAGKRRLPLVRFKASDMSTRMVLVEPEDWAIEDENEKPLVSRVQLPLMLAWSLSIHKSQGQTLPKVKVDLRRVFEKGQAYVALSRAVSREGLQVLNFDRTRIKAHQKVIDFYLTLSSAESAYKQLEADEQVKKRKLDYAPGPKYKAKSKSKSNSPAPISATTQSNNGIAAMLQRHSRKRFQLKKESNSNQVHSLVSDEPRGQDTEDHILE
Test: filter binding

Binder CGGCCCGGCGGTCCGCGGTC (ssDNA) [G-rich 20-mer (GR)] has a Kd of 0.04 nM.

In the case of CAAAGGACCCTTTGTGGATC (ssDNA) [non-G-rich 20-mer (NG)], the Kd is reported as 0.2 nM.
